This is an account of results in article PMC7859202, “A scaffold lncRNA shapes the mitosis to meiosis switch”.

The chains are these.
B1: poly-U15 (ssRNA)
RNA: UUUUUUUUUUUUUUU
B2: U7GU7 (ssRNA)
RNA: UUUUUUUGUUUUUUU
B3: GCUUUUUGUUCG 12-mer (ssRNA)
RNA: GCUUUUUGUUCG
B4: U6GGU7 (ssRNA)
RNA: UUUUUUGGUUUUUUU

One may read the Kd as the free concentration of one partner at which half of the binding sites on the other are occupied at equilibrium, for simple one-to-one binding.

The target in this data set is T1, RRM3Mei2 (Schizosaccharomyces pombe, UniProt P08965 579-750).
T1 sequence: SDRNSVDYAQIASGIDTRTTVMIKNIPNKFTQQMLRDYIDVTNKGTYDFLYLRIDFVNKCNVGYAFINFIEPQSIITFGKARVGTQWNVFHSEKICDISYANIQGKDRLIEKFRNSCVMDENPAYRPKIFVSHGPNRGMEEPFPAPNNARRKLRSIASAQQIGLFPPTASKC
Briefly: ITC; ITC: 20 mM Tris-HCl pH 7.5, 200 mM NaCl, 5 mM 2-mercaptoethanol, 20 °C; N fixed to 1. To be noted: protein: recombinant; tags: GST-tag removed by 3C protease. (Isothermal titration calorimetry measures the heat released or taken up as one component is titrated into another.)
With B1, the Kd worked out at 1430 ± 194 nM.
As for B2, the Kd amounted to 145 ± 26 nM.
For B3, the Kd was 555 ± 166 nM.
As for B4, the dissociation constant Kd is 435 ± 112 nM.
